According to the supplement of paper PMC10567573:

B1: SMTNL2 (parent)
chain: ETAAGKGKGEARARLKRSQSFGVA

Variants of: B1
Experiment: protein stability index of a GFP-peptide fusion (GPS, HEK-293T) (PSI 1-6); higher = more stable
Conditions: c terminus: a fixed tail appended
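Also: lentivirally expressed fusions sorted by FACS into six bins by GFP to DsRed ratio, PSI derived from sequencing read proportions per bin multiplied by bin number.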

Protein stability index, by site and new letter:
G5: E 4.79; C 4.41; H 4.77; N 4.58; F 4.04; Y 4.07; M 3.93; K 4.8; P 4.52; Q 4.39; V 4.34; R 4.42; T 4.38; S 4.24; D 3.84; A 4.94; W 4.06; I 3.91; L 4.56
A3: H 4.31; D 4.72; G 4.54; S 4.28; N 4.74; T 4.65; E 4.94; Q 4.56; K 4.38; I 4.13; F 4.28; Y 3.74; C 3.86; P 4.88; L 4.8; V 4.33; W 4.27; R 4.1; M 4.5
A11: H 4.49; M 4.19; L 4.5; W 3.65; Q 4.19; T 4.62; K 4.74; I 3.69; G 4.61; P 4.46; Y 4.06; N 4.56; R 4.73; S 4.58; V 4.02; F 3.71; C 3.96; D 4.8; E 4.69
T2: L 4.36; K 4.58; I 4.11; Y 3.83; D 5.39; N 4.86; V 4.79; C 4.53; P 4.92; G 4.71; W 3.07; F 4.46; S 4.66; A 4.74; H 4.46; Q 4.55; M 4.65; E 4.83
E10: N 4.21; L 3.79; F 3.7; P 4.27; W 3.4; I 3.96; Y 3.35; T 4.38; C 3.51; A 4.33; G 4.49; D 4.38; R 4.53; S 4.46; K 4.29; Q 3.9; H 4.44; M 4.44; V 4.27
A13: C 4.38; F 3.9; N 4.55; M 4.05; L 4.11; K 4.86; H 4.83; E 4.95; D 4.4; G 4.78; P 4.7; I 4.54
G9: C 4.21; K 4.21; V 4.26; D 4.53; E 4.96; P 4.43; W 3.27; Q 4.51; H 4.58; T 3.6; S 5.08; M 3.95; I 4.37; Y 4.42; R 4.27; L 3.6; N 4.56; F 4.12; A 4.12
R12: M 3.94; S 4.92; K 4.88; I 3.95; G 5.1; Q 4.61; E 5.03; F 3.9; T 3.76; N 3.82; L 4.24; Y 4.28; H 4.45; C 4.38; A 4.76; W 3.14; V 4.83; P 4.67; D 4.79
G7: F 3.87; L 4.26; C 3.48; M 3.73; W 3.03; D 4.75; H 4.18; E 4.71; S 4.22; R 4.11; V 4.01; T 4.48; I 4.17; A 4.28; Y 4.2; N 4.02; Q 4.46; K 4.62; P 4.08
K8: V 4.62; E 4.89; M 4.66; R 4.38
